Test results reported in article PMC9938168, “Structural basis for clearing of ribosome collisions by the RQT complex” (Nature Communications, 2023).

B1: ribosomal protein uS5 of the 40S subunit (natural protein, UniProt P25443 1-254, looked up)
chain: MSAPEAQQQKRGGFGGRNRGRPNRRGPRNTEEKGWVPVTKLGRLVKAGKITTIEEIFLHSLPVKEFQIIDTLLPGLQDEVMNIKPVQKQTRAGQRTRFKAVVVVGDSNGHVGLGIKTAKEVAGAIRAGIIIAKLSVIPIRRGYWGTNLGQPHSLATKTTGKCGSVTVRLIPAPRGSGIVASPAVKKLLQLAGVEDVYTQSNGKTRTLENTLKAAFVAIGNTYGFLTPNLWAEQPLPVSPLDIYSDEASAQKKRF
notes: uS5 (Rps2), 40S ribosomal protein of yeast; its usually flexible N-terminus is seen as extra density; Stood in the assay as part of the whole 80S ribosome; source: endogenous, in ribosomes of a yeast cell-free translation extract; ribosome-nascent chain complexes purified (His-tag Dynabeads, sucrose gradient)
B2: RACK1 (Asc1) of the 40S head (natural protein, UniProt P38011 1-319, looked up)
chain: MASNEVLVLRGTLEGHNGWVTSLATSAGQPNLLLSASRDKTLISWKLTGDDQKFGVPVRSFKGHSHIVQDCTLTADGAYALSASWDKTLRLWDVATGETYQRFVGHKSDVMSVDIDKKASMIISGSRDKTIKVWTIKGQCLATLLGHNDWVSQVRVVPNEKADDDSVTIISAGNDKMVKAWNLNQFQIEADFIGHNSNINTLTASPDGTLIASAGKDGEIMLWNLAAKKAMYTLSAQDEVFSLAFSPNRYWLAAATATGIKVFSLDPQYLVDDLRPEFAGYSKAAEPHAVSLAWSADGQTLFAGYTDNVIRVWQVMTAN
notes: RACK1 (Asc1), protein at the back side of the 40S head of the yeast ribosome; Stood in the assay as part of the whole 80S ribosome; source: endogenous, in ribosomes of a yeast cell-free translation extract; ribosome-nascent chain complexes purified (His-tag Dynabeads, sucrose gradient)
B3: ribosomal protein uS3 of the 40S subunit (natural protein, UniProt P05750 1-240, looked up)
chain: MVALISKKRKLVADGVFYAELNEFFTRELAEEGYSGVEVRVTPTKTEVIIRATRTQDVLGENGRRINELTLLVQKRFKYAPGTIVLYAERVQDRGLSAVAQAESMKFKLLNGLAIRRAAYGVVRYVMESGAKGCEVVVSGKLRAARAKAMKFADGFLIHSGQPVNDFIDTATRHVLMRQGVLGIKVKIMRDPAKSRTGPKALPDAVTIIEPKEEEPILAPSVKDYRPAEETEAQAEPVEA
notes: uS3 (Rps3), 40S ribosomal protein of yeast, part of the stalled ribosome; Stood in the assay as part of the whole 80S ribosome or disome, which had been ubiquitinated in vitro with Hel2; source: endogenous, in ribosomes of a yeast cell-free translation extract; ribosome-nascent chain complexes purified (His-tag Dynabeads, sucrose gradient)
B4: Rqt4, zinc-finger containing subunit of the RQT complex (natural protein, yeast)
chain: MTRKQAIDYAIKQVPQILPLEESDVKALCEQVLSTSSDDPEQIASKFLEFLGHEDLSFEFVMKFNELLNQNDKKEEKKTKNVHLEHTAPTSWKNESKQPTNNYINKKGDEKPKKLKDEKKSSTTRPTVQPSNQSTQSNPIKEKKEHRSKGKLQSLQEIDEAIKMLELRDSGSSKNCNCQGTRHPVFDIAPNCLHCGKVVCVIEGLNKGKCGHCHEQLISDNERTQMVEILNQEKNELNGSSSSLSNASNGANVPKKKTKTYKITSGMGKNLFAEQDKLFDFIERKRERERKRNEVLKLQEEKEESEAKERQASEHDHKAEENPELLAAQERLDRLLYFQDTSAERTKIIDNASDFDMNQEVGLWGSARERALALKKQQRNLRKWEKVEKERNGRREKYVVSMNIGSNGKVTMTEVPKDTENVIAGSDDDISDISDEEDISDLKHIHALKSEINTTKSLENLHLQSKAWDYERDKKQFDRPTYVKKNSDTAQQNRKTEEKAHDMQAYDLKSRVQVDQNADASVEQNILAVL
notes: Rqt4 of yeast RQT; two parts modelled (residues 171-219 and 323-381); PWI-like domain 1-74, helices flanking the zinc finger and the C-terminus not visible
B5: Cue3 (Rqt3), ubiquitin-binding CUE domain containing subunit of the RQT complex (natural protein, yeast, UniProt P53137 1-624, looked up)
chain: MLSRYNRVIEINGGNADISLPIVKFPPFKLRAQLIEKDPVVWLHLIETYVTYFEYLMQGANVELLDESTLDHLRLFLRTYLHEIADEEGKLLSLGINHDVSEQLYLLKGWIFSLIKKCGLLHLQIFGDSLWNLIKVYVRRNPDSIRGLIDGSLKPRINTQRVQLDKSYQVQQHLKQLIESGKFKRIDLRCVEDLLSAKSMQPNKFAENFFTANWIEILEALWAKGQGRGHKEARELIIISLFSVSADRLLKITKELGISNFETLALYPLLGTMLINEGVHKRLPDLKSKLLFLNLGGLSMDEGDHMSYPTSSGTEVNEEQLSALMELFPQFSKYQLSQTLLAYDNNIELVTNKIFEDPTIIEAFSREPAEEEVEPVSDGDNASFTEELSILDRGDSSKNKELDKKIISEGVPDELRNKTLTRALKLLYEADEDERDDTYDEADVNRSDPSKRIGLQEDEESYDTKDDSNEVRQDHNYHIVEAYLWNLLKEDPKLFERSKRGTKVRKTMKEMTSWSDEKIEGWCRMLERSPTRARLLEKKFMFKGNSKTGKTSYVHNRDSQNDGNVVKEQAKQKKSENIKKHEPQSTEQKKRQHAKNEKRKGARANHNRKKGHDKKLARAGNNAI
notes: Cue3 (Rqt3) of yeast RQT; only the N-terminal helical domain 1-297 modelled; CUE domain 298-360, four-helix bundle 468-541 and C-terminus 542-624 not visible

How the values were obtained:
Conditions in all cases: both partners purified
[1] = target: T1, Ski2-like helicase 1 (Slh1), subunit of the RQT complex, wild type (yeast, UniProt P53327 1-1967); experiment: cryo-EM structure; RQT-80S complex in conformation C1 (classical POST state); ubiquitinated CGN12-stalled disomes incubated 5 min at 25 °C with purified wild-type RQT and 1 mM ATP (post-splitting sample), vitrified; 80S refined to 2.4 Å, RQT locally refined to 3.5 Å
T1 construct: Slh1 (Rqt2), ATP-dependent Ski2-like RNA helicase of yeast RQT, 1967 amino acids; NTC residues 217-1122 and CTC residues 1123-1967 modelled, N-terminal domain 1-217 not visible; Co-purified with Cue3 and Rqt4 as the trimeric RQT complex; Eluted by TEV cleavage of the FTP tag; also called Rqt2; Slh1-FTP; source: yeast strain overexpressing RQT components (Slh1-FTP, Cue3, Rqt4), purified …
T1 sequence (P53327 whole entry, the tested form may be a part, one chain of several): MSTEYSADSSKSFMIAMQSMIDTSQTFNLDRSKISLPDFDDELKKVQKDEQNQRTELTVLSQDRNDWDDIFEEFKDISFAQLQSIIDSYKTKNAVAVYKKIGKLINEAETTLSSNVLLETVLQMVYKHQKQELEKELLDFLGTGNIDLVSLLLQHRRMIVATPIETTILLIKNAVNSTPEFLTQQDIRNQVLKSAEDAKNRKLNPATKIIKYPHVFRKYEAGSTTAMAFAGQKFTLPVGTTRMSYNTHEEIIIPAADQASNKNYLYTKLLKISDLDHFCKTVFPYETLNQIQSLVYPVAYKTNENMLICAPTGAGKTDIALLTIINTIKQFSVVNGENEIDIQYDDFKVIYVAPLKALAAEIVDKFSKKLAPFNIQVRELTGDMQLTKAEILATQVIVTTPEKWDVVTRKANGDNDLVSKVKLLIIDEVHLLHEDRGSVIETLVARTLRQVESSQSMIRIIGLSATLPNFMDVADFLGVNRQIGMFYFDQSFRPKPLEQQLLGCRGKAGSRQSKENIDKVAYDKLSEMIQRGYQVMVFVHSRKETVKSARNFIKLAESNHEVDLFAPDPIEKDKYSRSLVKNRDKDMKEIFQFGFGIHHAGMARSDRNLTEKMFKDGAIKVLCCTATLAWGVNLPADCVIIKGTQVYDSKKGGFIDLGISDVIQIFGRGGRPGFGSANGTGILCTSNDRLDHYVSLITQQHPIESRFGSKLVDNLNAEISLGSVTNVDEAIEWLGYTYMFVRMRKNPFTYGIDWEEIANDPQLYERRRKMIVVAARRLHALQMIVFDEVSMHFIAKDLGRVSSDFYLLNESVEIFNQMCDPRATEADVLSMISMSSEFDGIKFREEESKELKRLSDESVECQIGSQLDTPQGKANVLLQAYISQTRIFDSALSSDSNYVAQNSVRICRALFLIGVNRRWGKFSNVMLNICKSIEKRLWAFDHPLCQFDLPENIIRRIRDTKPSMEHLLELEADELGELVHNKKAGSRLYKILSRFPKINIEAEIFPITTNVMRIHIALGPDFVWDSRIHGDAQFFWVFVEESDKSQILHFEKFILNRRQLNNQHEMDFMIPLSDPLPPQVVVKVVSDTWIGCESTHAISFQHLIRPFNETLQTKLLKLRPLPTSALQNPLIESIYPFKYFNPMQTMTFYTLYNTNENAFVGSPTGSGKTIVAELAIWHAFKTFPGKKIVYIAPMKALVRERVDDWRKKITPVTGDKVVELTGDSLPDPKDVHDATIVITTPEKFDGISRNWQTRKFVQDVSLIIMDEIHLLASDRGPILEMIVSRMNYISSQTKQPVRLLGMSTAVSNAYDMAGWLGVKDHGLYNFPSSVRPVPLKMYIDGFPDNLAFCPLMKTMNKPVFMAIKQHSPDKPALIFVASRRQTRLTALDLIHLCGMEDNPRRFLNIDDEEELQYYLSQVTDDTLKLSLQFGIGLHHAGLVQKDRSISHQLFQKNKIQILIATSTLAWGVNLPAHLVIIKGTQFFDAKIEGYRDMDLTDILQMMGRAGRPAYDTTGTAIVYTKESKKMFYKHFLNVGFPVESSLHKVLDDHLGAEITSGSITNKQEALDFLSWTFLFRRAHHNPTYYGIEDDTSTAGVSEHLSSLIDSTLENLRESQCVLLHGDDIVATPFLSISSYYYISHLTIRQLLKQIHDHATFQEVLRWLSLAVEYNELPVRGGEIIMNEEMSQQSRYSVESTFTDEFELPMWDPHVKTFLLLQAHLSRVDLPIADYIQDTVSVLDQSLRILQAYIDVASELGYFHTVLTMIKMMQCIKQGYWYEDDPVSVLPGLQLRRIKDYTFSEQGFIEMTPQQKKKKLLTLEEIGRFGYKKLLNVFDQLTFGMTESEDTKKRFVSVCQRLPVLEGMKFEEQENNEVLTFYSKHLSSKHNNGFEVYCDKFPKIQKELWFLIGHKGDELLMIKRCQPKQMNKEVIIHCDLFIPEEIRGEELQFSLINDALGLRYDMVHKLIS

[2] = target: T2, Slh1-K316R, ATPase-deficient Walker A mutant of the N-terminal cassette, subunit of K316R-RQT (yeast, UniProt P53327 1-1967, K316R); experiment: cryo-EM structure; pre-splitting samples: ubiquitinated CGN6-stalled disomes with wild-type RQT, or ubiquitinated CGN12-stalled disomes with K316R-RQT (RQT*), 1 mM ATP, 5 min at 25 °C; RQT seen on the lead ribosome of intact disomes
T2 construct: Slh1 (Rqt2) of yeast RQT, 1967 amino acids, with the ATPase-deficient mutation K316R; Probably made and tagged like the wild-type Slh1-FTP; also called K316R-Slh1; source: purified RQT complex (K316R-Slh1 mutant)
T2 sequence (P53327 whole entry K316R): as the sequence (P53327 whole entry, the tested form may be a part, one chain of several) above, with K316R counted along it

[3] = target: T1, Ski2-like helicase 1 (Slh1), subunit of …; experiment: as above

Binder | binding result [1] | binding result [2] | binding result [3]
B1 | binds | – | –
B2 | binds | – | –
B3 | binds | – | –
B4 | – | binds | binds
B5 | – | binds | binds
